According to patent publication US20130225493A1 (HEPACORE, published 2013):

What was measured:
[1] = target: T1, FGFR4 extracellular domain, immobilized (R4-Fc) (UniProt P22455 22-369); test: ELISA: biotinylated ligand on immobilized FGFR-Fc, HRP-streptavidin
T1 construct: extracellular domain; also called FDCPR4-Fc
T1 sequence (looked up): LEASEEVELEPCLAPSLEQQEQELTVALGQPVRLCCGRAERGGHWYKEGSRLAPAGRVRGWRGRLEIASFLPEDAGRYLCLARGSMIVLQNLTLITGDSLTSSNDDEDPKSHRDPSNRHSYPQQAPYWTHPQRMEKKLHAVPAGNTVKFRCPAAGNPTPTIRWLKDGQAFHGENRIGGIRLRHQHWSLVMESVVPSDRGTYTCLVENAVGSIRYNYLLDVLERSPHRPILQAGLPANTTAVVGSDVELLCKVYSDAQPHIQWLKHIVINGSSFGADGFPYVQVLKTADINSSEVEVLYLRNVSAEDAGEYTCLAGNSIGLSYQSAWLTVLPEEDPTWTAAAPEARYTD
Experimental: FIGS. 2A-2D. […] (2A) FGFR1; (2B) FGFR2; (2C) FGFR3 and (2D) FGFR4. Biotinylated FGF-18 (♦) and three FGF-18 variants (Δ37, v1,; Δ45, v2, (▪); and Δ51, v3, (▪)) were added at increasing concentrations to FGFR1-4 anchored to a MaxiSorp ELISA plate. Bound ligands were detected by HRP-streptavidin. Data are the average of duplicate wells.
FGF-18 and the N-terminal truncated variants (FGF-18^Δ37, FGF-18^Δ45 and FGF-18^Δ51) were tested for receptor specificity by binding to immobilized extracellular domain of FGFR1-4 (FIG. 2). Biotinylated FGF's were added at increasing concentrations to FGFR1-4 anchored to a MaxiSorp ELISA plate. Bound ligands were detected by HRP-streptavidin. […] The variants of the present invention are thus shown to be specific for FGFR3-4.

[2] = target: T1, FGFR4 extracellular domain, immobilized …; test: functional ELISA on immobilized FGFR

Row | Binder | EC50 [1] | EC50 [2]
1 | FGF-18^Δ51 (ligand, biotinylated in the immobilized receptor assays (sites not given), E. coli expressed; Numbering includes the signal peptide (1-27); also called v3) MLRLYQLYSRTSGKHIQVLGRRISARGEDGDKYAQLLVETDTFGSQVRIKGKETEFYLCMNRKGKLVGKPDGTSKECVFIEKVLENNYTALMSAKYSGWYVGFTKKGRPRKGPKTRENQQDVHFMKRYPKGQPELQKPFKYTTVTKRSRRIRPTHPA | 9.93 ng/mL | 10.6 ng/mL
2 | FGF-18^Δ45 (ligand, biotinylated in the immobilized receptor assays (sites not given), E. coli expressed; Numbering includes the signal peptide (1-27); also called v2) MDVSRKQLRLYQLYSRTSGKHIQVLGRRISARGEDGDKYAQLLVETDTFGSQVRIKGKETEFYLCMNRKGKLVGKPDGTSKECVFIEKVLENNYTALMSAKYSGWYVGFTKKGRPRKGPKTRENQQDVHFMKRYPKGQPELQKPFKYTTVTKRSRRIRPTHPA | 8.1 ng/mL | –
3 | FGF-18^Δ37 (ligand, biotinylated in the immobilized receptor assays (sites not given), E. coli expressed; Numbering includes the signal peptide (1-27); also called v1) MENQTRARDDVSRKQLRLYQLYSRTSGKHIQVLGRRISARGEDGDKYAQLLVETDTFGSQVRIKGKETEFYLCMNRKGKLVGKPDGTSKECVFIEKVLENNYTALMSAKYSGWYVGFTKKGRPRKGPKTRENQQDVHFMKRYPKGQPELQKPFKYTTVTKRSRRIRPTHPA | 5.86 ng/mL | 8.28 ng/mL
4 | FGF-18^Δ31 (ligand, biotinylation not stated for the functional ELISA of Table 4, E. coli expressed) MDFRIHVENQTRARDDVSRKQLRLYQLYSRTSGKHIQVLGRRISARGEDGDKYAQLLVETDTFGSQVRIKGKETEFYLCMNRKGKLVGKPDGTSKECVFIEKVLENNYTALMSAKYSGWYVGFTKKGRPRKGPKTRENQQDVHFMKRYPKGQPELQKPFKYTTVTKRSRRIRPTHPA | – | 9.36 ng/mL
5 | FGF-18^Δ33 (ligand, biotinylation not stated for the functional ELISA of Table 4, E. coli expressed; Numbering includes the signal peptide (1-27)) MRIHVENQTRARDDVSRKQLRLYQLYSRTSGKHIQVLGRRISARGEDGDKYAQLLVETDTFGSQVRIKGKETEFYLCMNRKGKLVGKPDGTSKECVFIEKVLENNYTALMSAKYSGWYVGFTKKGRPRKGPKTRENQQDVHFMKRYPKGQPELQKPFKYTTVTKRSRRIRPTHPA | – | 7.11 ng/mL
6 | FGF-18 (recombinant wild type, mature form without the signal peptide) (ligand, biotinylated in the immobilized receptor assays (sites not given), Expressed in E. coli from pET9a and purified on heparin Sepharose; also called FGF-18 wild type; F18 w.t) MENVDFRIHVENQTRARDDVSRKQLRLYQLYSRTSGKHIQVLGRRISARGEDGDKYAQLLVETDTFGSQVRIKGKETEFYLCMNRKGKLVGKPDGTSKECVFIEKVLENNYTALMSAKYSGWYVGFTKKGRPRKGPKTRENQQDVHFMKRYPKGQPELQKPFKYTTVTKRSRRIRPTHPA | 9.23 ng/mL | 10.2 ng/mL
